This note sets out measurements from article PMC5372681, “Study of Different Variants of Mo Enzyme crARC and the Interaction with Its Partners crCytb5-R and crCytb5-1” (International Journal of Molecular Sciences, 2017).

Broadly, the stoichiometry N is the number of molecules, sites or subunits per partner or assembly.

Test [1] concerns the target crARC variant F210A (Chlamydomonas reinhardtii). The test can be described thus: SEC; each protein loaded alone; Superdex 200 10/300 GL, 50 mM phosphate buffer pH 7.2, 0.15 M NaCl, 0.75 mL/min; Mw from a calibration curve of marker proteins. (In general: Size exclusion chromatography separates by hydrodynamic size, large species first.)
Test [2] concerns the target crCytb5-R, Chlamydomonas reinhardtii NADH cytochrome b5 reductase (Chlamydomonas reinhardtii).
The target of test [3] is crARC, Chlamydomonas reinhardtii mARC (mitochondrial Amidoxime Reducing Component), wild type (Chlamydomonas reinhardtii). The test can be described thus: SEC; two proteins incubated together for 10 min, then loaded; 15 pmol of each; Superdex 200 10/300 GL, 50 mM phosphate buffer pH 7.2, 0.15 M NaCl, 0.75 mL/min; peak fractions checked by SDS-PAGE.
Test [4] addresses crCytb5-R, Chlamydomonas reinhardtii NADH cytochrome b5 reductase (Chlamydomonas reinhardtii). The test is described as above.
For test [5], the target named is crCytb5-1, Chlamydomonas reinhardtii cytochrome b5-1 (Chlamydomonas reinhardtii). The test can be described thus: SEC; each protein loaded alone; Superdex 200 10/300 GL, 50 mM phosphate buffer pH 7.2, 0.15 M NaCl, 0.75 mL/min; Mw from a calibration curve of marker proteins.
Test [6] deals with crARC variant R276A (Chlamydomonas reinhardtii). Described as above.
For test [7], the target named is crCytb5-1, Chlamydomonas reinhardtii cytochrome b5-1 (Chlamydomonas reinhardtii).

In test [1], crARC variant F210A (enzyme) returned a times more oligomeric forms than the wild type of 10 times.

“crARC variant E267A (enzyme; the values are: NADH-dependent HAP reduction activity (% of wild type))” had an NADH-dependent HAP reduction activity of the crARC variant with crCytb5-1 and crCytb5-R in test [2] of 25%.

As to “crCytb5-1, Chlamydomonas reinhardtii cytochrome b5-1 (natural protein)”, in test [3], the stoichiometry N (crCytb5-1 per crARC) turned out to be 2. In test [4], the stoichiometry N (crCytb5-1 per crCytb5-R) stood at 4. Also, the stoichiometry N in test [5] worked out at 2.

With crARC variant R276A (enzyme), in test [6], the stoichiometry N turned out to be 30 crARC units.

crARC variant E267A (enzyme) registered an NADH-dependent HAP reduction activity of the crARC variant with crCytb5-1 and crCytb5-R (% of the wild type activity) in test [7] of 25.
